Measured values from patent publication US20250128187A1.

Target: streptavidin immobilized on membrane (streptavidin modified membrane prepared according to FIG. 10) (Streptomyces avidinii) (UniProt P22629)
Experiment: depletion from solution; 0.0055 mL streptavidin membrane incubated in 0.4 mL of 1 mg/mL biotin-conjugate for 24 hours

Chain of streptavidin immobilized on membrane (streptavidin modified membrane prepared according to FIG. 10) (Streptomyces avidinii) (P22629 37-163 limits assumed): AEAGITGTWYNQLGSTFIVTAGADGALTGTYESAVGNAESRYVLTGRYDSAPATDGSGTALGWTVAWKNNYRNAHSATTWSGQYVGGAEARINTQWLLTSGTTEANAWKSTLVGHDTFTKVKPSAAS

For Biotin-BSA (from UniProt P02769 25-607), the Amount Immobilized (mg biotin-conjugate/mL membrane) (mg biotin-conjugate/mL membrane) was 38.6.

With Biotin-Mal 1 the Amount Immobilized (mg biotin-conjugate/mL membrane) (mg biotin-conjugate/mL membrane) was 9.71.
